Data published in publication PMC4728127, “A mutation uncouples the tubulin conformational and GTPase cycles, revealing allosteric control of microtubule dynamics” (eLife, 2015).

B1: Bim1-GFP fusion protein (natural protein, yeast, UniProt P40013 1-344, looked up)
chain: MSAGIGESRTELLTWLNGLLNLNYKKIEECGTGAAYCQIMDSIYGDLPMNRVKFNATAEYEFQTNYKILQSCFSRHGIEKTVYVDKLIRCKFQDNLEFLQWLKKHWIRHKDESVYDPDARRKYRPIITNNSATKPRTVSNPTTAKRSSSTGTGSAMSGGLATRHSSLGINGSRKTSVTQGQLVAIQAELTKSQETIGSLNEEIEQYKGTVSTLEIEREFYFNKLRDIEILVHTTQDLINEGVYKFNDETITGHGNGNGGALLRFVKKVESILYATAEGFEMNDGEDELNDKNLGEHGTVPNQGGYANSNGEVNGNEGSNHDVIMQNDEGEVGVSNNLIIDEETF
notes: Bim1p, the yeast EB1 family protein; C-terminal EGFP-tag followed by a Strep-tag II; also called Bim1p; yeast EB1 protein; source: E. coli BL21(DE3), purified (His60 Superflow column, Strep-Tactin Superflow column); not shown: EGFP, C-terminal, kept
B2: TOG1(1-317) of Stu2p (domain or fragment, yeast, UniProt P46675 1-317, looked up)
chain: MSGEEEVDYTTLPLEERLTYKLWKARLEAYKELNQLFRNSVGDISRDDNIQIYWRDPTLFAQYITDSNVVAQEQAIVALNSLIDAFASSSLKNAHNITLISTWTPLLVEKGLTSSRATTKTQSMSCILSLCGLDTSITQSVELVIPFFEKKLPKLIAAAANCVYELMAAFGLTNVNVQTFLPELLKHVPQLAGHGDRNVRSQTMNLIVEIYKVTGNNSDLLEEILFKKLKPIQVKDLHKLFAKVGDEPSSSKMLFEWEKRELEKKRSQEEEARKRKSILSNDEGEYQIDKDGDTLMGMETDMPPSKQQSGVQIDTFS
notes: Stu2p, yeast microtubule polymerase, TOG1 domain, residues 1-317; Plasmid described in Ayaz et al., 2012; 2014; also called Stu2 TOG1 domain
B3: TOG2(318-560) of Stu2p (domain or fragment, yeast, UniProt P46675 318-560, looked up)
chain: MLPEETILDKLPKDFQERITSSKWKDRVEALEEFWDSVLSQTKKLKSTSQNYSNLLGIYGHIIQKDANIQAVALAAQSVELICDKLKTPGFSKDYVSLVFTPLLDRTKEKKPSVIEAIRKALLTICKYYDPLASSGRNEDMLKDILEHMKHKTPQIRMECTQLFNASMKEEKDGYSTLQRYLKDEVVPIVIQIVNDTQPAIRTIGFESFAILIKIFGMNTFVKTLEHLDNLKRKKIEETVKTL
notes: Stu2p, yeast microtubule polymerase, TOG2 domain, residues 318-560; Plasmid described in Ayaz et al., 2012; 2014; also called Stu2 TOG2 domain

What was measured:
[1] = biological target: T1, wild-type yeast αβ-tubulin (S. cerevisiae, UniProt P09733 1-447; P02557 1-457); experiment: TIRF microscopy of Bim1-GFP on microtubules; dynamic microtubules grown from sea urchin axonemes in flow chambers with 1 mM GTP; 5 or 50 nM Bim1-GFP in solution; 30 °C; details: both partners purified
T1 construct: Tub1p, α-tubulin of S. cerevisiae; Ayaz et al., 2012; 2014); Tub2p, β-tubulin of S. cerevisiae; Unpolymerized heterodimer in the AUC; polymerised into microtubules in the Bim1-GFP, growth and sedimentation assays; also called WT; wild-type αβ-tubulin

β:T238A αβ-tubulin [2] = biological target: T2, β:T238A αβ-tubulin (S. cerevisiae, UniProt P09733 1-447; P02557 1-457, T238A); experiment: as above; details: both partners purified
T2 construct: Tub1p, α-tubulin of S. cerevisiae; Tub2p, β-tubulin of S. cerevisiae, with T238A made by QuikChange on the wild-type Tub2 expression plasmid; Unpolymerized heterodimer in the AUC; microtubules in the other assays; also called T238A tubulin; β:T238A microtubules

β:C354A αβ-tubulin = biological target: T3, β:C354A αβ-tubulin (S. cerevisiae, UniProt P09733 1-447; P02557 1-457, C354A); experiment: as above; details: both partners purified
T3 construct: Tub1p, α-tubulin of S. cerevisiae; Tub2p, β-tubulin of S. cerevisiae, with C354A (yeast numbering); The making of the C354A plasmid is not described; Used as microtubules; also called β:C354A microtubules

β:T238A αβ-tubulin [3] = biological target: β:T238A αβ-tubulin (S. cerevisiae, UniProt P09733 1-447; P02557 1-457, T238A); experiment: AUC
[4] = biological target: T4, wild-type yeast αβ-tubulin (S. cerevisiae, UniProt P09733 1-447; P02557 1-457); experiment: AUC
T4 chain 1: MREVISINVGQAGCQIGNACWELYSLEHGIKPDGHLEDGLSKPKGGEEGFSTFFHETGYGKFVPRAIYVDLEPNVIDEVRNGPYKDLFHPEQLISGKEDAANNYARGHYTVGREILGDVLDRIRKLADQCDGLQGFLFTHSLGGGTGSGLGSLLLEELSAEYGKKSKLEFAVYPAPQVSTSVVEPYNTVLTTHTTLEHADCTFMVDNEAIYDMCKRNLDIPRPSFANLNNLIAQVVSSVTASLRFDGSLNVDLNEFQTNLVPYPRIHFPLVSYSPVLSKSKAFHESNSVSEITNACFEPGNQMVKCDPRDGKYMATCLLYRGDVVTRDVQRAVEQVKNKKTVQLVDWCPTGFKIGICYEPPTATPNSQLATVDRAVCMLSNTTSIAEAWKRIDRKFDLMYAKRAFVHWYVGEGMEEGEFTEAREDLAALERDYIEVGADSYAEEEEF
T4 chain 2: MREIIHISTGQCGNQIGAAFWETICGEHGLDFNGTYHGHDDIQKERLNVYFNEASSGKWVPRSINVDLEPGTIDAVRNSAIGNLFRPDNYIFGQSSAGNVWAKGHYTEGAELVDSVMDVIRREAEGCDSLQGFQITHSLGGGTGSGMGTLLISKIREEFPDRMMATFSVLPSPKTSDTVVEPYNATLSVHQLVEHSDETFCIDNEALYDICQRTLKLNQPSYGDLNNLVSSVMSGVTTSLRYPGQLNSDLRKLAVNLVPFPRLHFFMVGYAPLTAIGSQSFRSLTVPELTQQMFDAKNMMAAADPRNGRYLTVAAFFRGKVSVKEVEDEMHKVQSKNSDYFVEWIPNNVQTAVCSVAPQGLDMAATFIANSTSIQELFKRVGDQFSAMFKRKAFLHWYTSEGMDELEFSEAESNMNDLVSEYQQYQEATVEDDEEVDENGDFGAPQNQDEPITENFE

[5] = biological target: T1, wild-type yeast αβ-tubulin; experiment: AUC; sedimentation velocity, 50,000 rpm, 20 °C, absorbance at 229 nm; 0.15 µM T238A αβ-tubulin with 0.015-5 µM TOG1 or TOG2; RB100 (25 mM Tris pH 7.5, 1 mM MgCl2, 1 mM EGTA, 100 mM NaCl) with 20 µM GTP; analysed with SEDFIT and SEDPHAT; details: both partners purified
β:T238A αβ-tubulin [6] = biological target: T2, β:T238A αβ-tubulin; experiment: as above; details: both partners purified

binding result [1]	binding result (β:T238A αβ-tubulin [2])	binding result (β:C354A αβ-tubulin)	Kd (β:T238A αβ-tubulin [3]) [nM]	Kd [4] [nM]	binding result [5]	binding result (β:T238A αβ-tubulin [6])	Binder
binds	binds	binds	–	–	–	–	B1
–	–	–	50	90	binds	binds	B2
–	–	–	160	180	binds	binds	B3
